Source: the supplement of paper PMC9170038

Test system: MS2 coat protein
Assay: apparent KD of MS2 coat protein; designed switch direction (-1 OFF switch, 1 ON switch): -1; higher = weaker reporter binding
How it was run: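 Stalled E. coli RNA polymerase transcribed designed RNA switches on Illumina chips, which were then titrated with SNAP-549-labelled MS2 coat protein, doubling from 0.7 or 1.5 nM to 3 µM. Steps lasted from 0.8–1.5 h at the lowest concentration to 10–20 min at the highest. The apparent KD is each design's median over clusters of curve-fitted normalised fluorescence.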

[1] = input ligand: microRNA oligo, concentration not stated
[2] = Eterna round: R95, input ligand: FMN 200 uM
[3] = Eterna round: R95, input ligand: microRNA oligo, concentration not stated
[4] = Eterna round: R95, input ligand: none

| Sequence | apparent KD of MS2 coat protein (input ligand: FMN 200 uM) [nM] | apparent KD of MS2 coat protein (input ligand: none) [nM] | apparent KD of MS2 coat protein [1] [nM] | apparent KD of MS2 coat protein [2] [nM] | apparent KD of MS2 coat protein [3] [nM] | apparent KD of MS2 coat protein [4] [nM] |
| --- | --- | --- | --- | --- | --- | --- |
| UGAUCACAUGAGGAUCACCCAUGUCAGGAUAUCGUCACUGGAGCUGCGGCUCCAGUGACGAGAAGGGACAUAAU [E1/3-A3] (Eterna round: R97, puzzle: Exclusion 1) | 50.8 | 242 |  |  |  |  |
| UGAUCAGACCGAGGAUAUACAUGUAGGACGCACGUGAGUGCGUCCAGUACAUGAGGAUCACCCAUGUAGAAGGCGGUCUGAUCU [JL ENG2 1.95] (Eterna round: R96, puzzle: Exclusion NG 2) | 309 | 76.1 | 78.2 |  |  |  |
| UGAUCUAGGCGAGGAUAUACAUGAGGAUCACCCAUGUAAGCGUGACAUGGAAACAUGUCACGUAUGUAGAAGGCGCCUAGAUCU [MOD ENG2 3.54 by JL] (Eterna round: R96, puzzle: Exclusion NG 2) |  | 13.3 | 8.6 |  |  |  |
| UGAUUGUUUAACAGAUUAUACAUGAGGAUCACCCAUGUAGGUCCUACGUGCACAUUAUGCAGCUCGUCUUAUUCCCA [Sensor-V1 #72] (Eterna round: R97, puzzle: Sensor, turn-off variant 1) | 35.5 | 37.3 |  |  |  |  |
| UGCAGACGAGGAUAUAAAUUUGAUAACAUGAGGAUCACCCAUGUGAUCGAUAGAUCAAAUUUAGAAGGCGUCUGCU [E5/7-A3] (Eterna round: R97, puzzle: Exclusion 5) | 541 | 519 |  |  |  |  |
| UGCCCAGCAGGAUAUACAUGAGGAUCACCCAUGUCGAUUCAGUACGACUUAGUGCAACGUAGAAGGGCUGGGCC [Eternabot (L1) Solution 84] (Eterna round: R97, puzzle: Exclusion 3) | 405 | 39.5 |  |  |  |  |
| UGCCUAGCAGGAUAUGCCCGGGAUAACAUGAGGAUCACCCAUGUGACCGAUUGAUAUCCUGCAGAAGGGCUAGGGA [JL-EX5-4.10 ViennaUCT mod] (Eterna round: R97, puzzle: Exclusion 5) | 62.1 | 16.7 |  |  |  |  |
| UGCUAGUCAGGAUAUACGAACAUGUCAAAAGACGUGAAGGGACAUGAGGAUCACCCAUGUAGAAGGGACUAGCA [salish99_ex2_r3_005] (puzzle: Exclusion 2) |  |  |  | 158 | 27.1 | 23.9 |
| UGGCUACAUGAGGAUCACCCAUGUCAGGAUAUGCCGUUAAAUUAACAUCAACAUACGGGUAGAAGGGACAGCGU [1st #6] (Eterna round: R97, puzzle: Exclusion 1) | 43.5 | 41.7 |  |  |  |  |
| UGGCUACAUGAGGAUCACCCAUGUCAGGAUAUGCCGUUAAAUUGACAUCAACGUACGGGUAGAAGGGACUGCGU [1st #8] (Eterna round: R97, puzzle: Exclusion 1) | 43.2 | 45.6 |  |  |  |  |
| UGGUAACAUGAGGAUCACCCAUGUCAGGAUAUCAGUAAGAAGAGAUUAGAUUAGAAUAUGAGAAGGGACUAUAG [Excluse me! 2 - Jieux - Exclusion 1] (puzzle: Exclusion 1) |  |  |  | 30.1 | 40.3 | 37.8 |
| UGGUAACAUGAGGAUCACCCAUGUCAGGAUAUCAGUAAGAAUAGAUUAGAUUAGAAUAUGAGAAGGGACUAUAG [Excluse me! 3 - Jieux - Exclusion 1] (puzzle: Exclusion 1) |  |  |  | 38.5 | 38.9 | 47.8 |
| UGGUGGAAGCAGGAUAUGCUAGAAGUGUAGUUUGCAGAAGGGCUAACAUGAGGAUCACCCAUGUAAGAGGUGUU [JR_E6_Sub053] (puzzle: Exclusion 6) |  |  |  | 94.2 | 211 | 290 |
| UGUACUAACACGAAAGUGUUAGUACAAUAAGCUUGUGUUACAUGAGGAUCACCCAUGUCCUCAUAAGCUCGUCUUAU [Mat - Sensor v3 - Turn-off var 2 - D51] (puzzle: Sensor v3, turn-off variant 2) |  |  |  | 88.2 | 52.3 | 99.2 |
